Columns and labels:
[1] = HA immunoblot of auto-cleavage; details: glycan lost; control: wild-type SHH-HA
[2] = cycloheximide chase of SHH-C, HA immunoblot; details: glycan changed form; control: untreated cells

## sonic hedgehog (SHH): N278A
[1]
  other: proteolytic processing: abolishes

## sonic hedgehog (SHH): kifunensine (KIF)
[2]
  degradation_or_half_life: decreases

## sonic hedgehog (SHH): castanospermine (CST)
[2]
  degradation_or_half_life: decreases
